Measurements published in paper PMC4164784, “4E-BPs require non-canonical 4E-binding motifs and a lateral surface of eIF4E to repress translation” (Nature Communications, 2014).
Values belong to the substance of their own block, whether it stands above or below them. No end group written: not given here.

Biological target: T1, Dm eIF4E (residues 69–248, WT) (Drosophila melanogaster, UniProt P48598)
T1 construct: The truncated His6-eIF4E (residues 69–248) that was used in the ITC experiments; His6 (N, cleaved yes); made in house; host or cells: E. coli BL21 Star (DE3)
T1 sequence (P48598 69-248 isoform P48598-2): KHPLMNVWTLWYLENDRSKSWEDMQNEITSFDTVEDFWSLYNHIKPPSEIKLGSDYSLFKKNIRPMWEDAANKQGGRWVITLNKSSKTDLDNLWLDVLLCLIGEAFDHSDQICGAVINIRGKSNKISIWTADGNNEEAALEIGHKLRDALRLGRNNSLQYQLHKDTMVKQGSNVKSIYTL
Assay: ITC, binding to eIF4E (WT, residues 69–248)
Settings: for entropic penalty (in words): bipartite regions; for TΔS / ΔG / Molar ratio / ΔH: eIF4E WT (69–248), pH 7.0, nb = no binding; for TΔS / ΔG / Kd / Molar ratio / ΔH: 20 °C; for Kd: VP-ITC, 20 mM Na-phosphate (pH 7.0), 150 mM NaCl, GB1-fused peptides (C+NC 10 μM, C 50 μM, L+NC 100 μM CUP or 200 μM Thor and 4E-T, eIF4G 20 μM) into eIF4E WT 1–20 μM, one-site model, each experiment repeated twice, nb = no binding
Description: Unless indicated otherwise, all the proteins were expressed in E. coli BL21 Star (DE3) cells (Invitrogen) that were grown in LB medium overnight at 20 °C. The lysis buffers were supplemented with DNaseI (5 μg ml^−1), lysozyme (1 mg ml^−1) and protease inhibitor cocktail (Roche). The truncated His6-eIF4E (residues 69–248) that was used in the ITC experiments and in Figs 2c and 5b was purified in lysis buffer containing 50 mM HEPES (pH 7.2), 300 mM NaCl, 20 mM imidazole and 2 mM β-mercaptoethanol using Ni^2+-affinity chromatography (HisTrap HP 5 ml, GE Healthcare) and eluted with a gradient of 20–500 mM imidazole. After the cleavage of the His6-tag with HRV3C protease (homemade), the protein was further purified using a heparin column (HiTrap Heparin HP 5 ml, GE Healthcare), followed by size exclusion chromatography (Superdex 75 16/60, GE Healthcare) in 20 mM Na-phosphate (pH 7.0), 300 mM NaCl and 2 mM dithiothreitol (DTT).
For the ITC measurements and the competition assays shown in Figs 4 and 5d–g, the 4E-BP peptides corresponding to the canonical (C) motifs, the combined (C+NC) motifs or L+NC were expressed with an HRV3C cleavable N-terminal MBP-tag and a non-cleavable C-terminal GB1 domain. The cells were lysed by sonication in lysis buffer containing 50 mM HEPES (pH 7.2), 300 mM NaCl and 2 mM DTT. The proteins were purified from the cleared lysates using amylose resin (New England Biolabs) followed by the cleavage of the MBP tag with HRV3C protease overnight at 4 °C. The proteins were further purified by size exclusion chromatography (Superdex 75 16/60, GE Healthcare) in 20 mM Na-phosphate (pH 7.0), 300 mM NaCl and 2 mM DTT. For the eIF4G fragment (residues 578–650) the MBP was removed after cleavage with TEV protease through an additional anion exchange chromatography (HiTrap Q HP 5 ml, GE Healthcare) before the final gel filtration.
The ITC experiments were performed using a VP-ITC microcalorimeter (MicroCal) at 20 °C. The solution of eIF4E (residues 69–248, WT or mutant: 1–20 μM) in the calorimetric cell was titrated with tenfold concentrated solutions of GB1-stabilized peptides corresponding to 4E-BPs C+NC (10 μM), C (50 μM), L+NC (100 μM CUP, 200 μM Thor and 4E-T) or eIF4G (residues 578–650, 20 μM) that were dissolved in the same buffer (20 mM Na-phosphate (pH 7.0) and 150 mM NaCl). The titration experiments consisted of an initial injection of 2 μl followed by 28 injections of 10 μl at an interval of 240 s. Each binding experiment was repeated twice. The thermodynamic parameters were estimated using a one-site binding model (Origin version 7.0), whereby the datapoint of the first injection was removed for the analysis.
(d) minimal regions for binding to eIF4E (wild-type (WT), residues 69–248). The top panels represent the raw data (μcal sec−1) whereas the bottom panels show the integrated data (kcal mole−1 of injectant) of heat changes that were best-fitted using a one-site binding model. The thermodynamic parameters correspond to heat changes that were detected when 4E-BPs (10 µM) or eIF4G (20 µM) were injected into the calorimetric cell (1.4 mL) containing 1 µM (a,b,c) or 2 µM (d) eIF4E.
Supplementary Figure 4. Thermodynamic parameters for the interaction of eIF4E with 4E-BP peptides. (a–f) ITC profiles for the interaction of eIF4E (WT, residues 69-248) and CUP (a,d), Thor (b,e) and 4E-T (c,f) peptides containing only the canonical motifs (a–c) or the L+NC regions (d–f). The measurements were performed as described in Supplementary
Fig. 3. The solutions contained the peptides corresponding to the canonical motifs (50 µM) or the L+NC regions (100 µM for CUP and 200 µM for Thor and 4E-T). The eIF4E concentration in the calorimetric cell was 5 µM (for the C peptides), 10 µM (for CUP L+NC) and 20 µM (for Thor and 4E-T L+NC peptides).
(1 picture or pasted object on this page, not shown here)

Substance: 4E-T C+NC: 4E-T residues 9–44, eIF4E-binding region short, C-terminal GB1
entropic penalty (in words) (eIF4E WT): lower entropic penalties
TΔS: -11.7 kcal/mol
ΔG: -11.11 kcal/mol

Substance: 4E-T C: 4E-T residues 9–21, canonical motif
Kd: 16 nM
Molar ratio: 0.95±0.01
TΔS: -8.16 kcal/mol
ΔG: -10.45 kcal/mol
ΔH: -18.6 ± 0.7 kcal/mol
affinity of the 4E-T C peptide relative to CUP and Thor C peptides (eIF4E WT, C motif peptides): approximately one and two orders of magnitude higher than those of the CUP and Thor peptides, respectively

Substance: CUP C+NC: CUP residues 325–376, eIF4E-binding region short, C-terminal GB1 (KSYTRSRLMDIRNGMFNALMHRSKESFVMPRIATCDDIELEGRLRRMNIWRT-GB1; UniProt Q9VMA3 325-376, looked up, fragment)
Kd: 9.1 nM
entropic penalty (in words) (eIF4E WT): highest entropic penalty
Molar ratio: 1.05±0.02
TΔS: -23.9 kcal/mol
ΔG: -10.78 kcal/mol
ΔH: -34.5 ± 0.35 kcal/mol

Substance: Thor C+NC: Thor residues 50–83, eIF4E-binding region short, C-terminal GB1 (TKLIYERAFMKNLRGSPLSQTPPSNVPSCLLRGT-GB1; UniProt Q9XZ56 50-83, looked up, fragment)
entropic penalty (in words) (eIF4E WT): lower entropic penalties
TΔS: -4.9 kcal/mol
ΔG: -11.87 kcal/mol

TΔS: -2.24 kcal/mol
Substance: Thor C: Thor residues 50–63, canonical motif
